Assays:
[1] = system: SK-N-BE(2)-M17 (M17) cells; test: Rotenone toxicity in stably transfected cell lines, LDH release; type: cell-based; conditions: stable overexpression, 48 hours; for protection against rotenone toxicity (LDH release): rotenone at varying concentrations
Method: Cell lines stably-transfected with either 14-3-3θ or empty vector were treated with varying concentrations of rotenone (0-25 μM) for 24 hours (FIG. 6A), 30 hours (FIG. 6B), or 48 hours (FIG. 6C). Cell death was assayed by LDH release into the culture media. LDH release into media was normalized to total LDH release for each well. […] Rater was blind to experimental condition. n=8 for each experimental condition. *p<0.05, ***p<0.001 (Bonferroni's multiple comparison test).
(§1) M17 cell lines stably-transfected with either a 14-3-3 isoform or empty vector were treated with varying concentrations of rotenone (0-25 μM) for 48 hours. Cell death was assayed by LDH release into the culture media. LDH release into media was normalized to total LDH release for each well. […] Results reflect two to three independent experiments with at least two replicates per experiment. *p<0.05, **p<0.01, ***p<0.001 (Bonferroni's multiple comparison test).
Additional studies were performed to evaluate the effect of 14-3-3 polypeptide isoforms in mammalian cells. In these studies, cDNA clones for the 14-3-3 polypeptide β, γ, ε, η, θ, and σ isoforms were subcloned into the mammalian expression vector pcDNA 3.1/V5/His (Invitrogen). The polypeptide expressed from this vector contains the particular 14-3-3 isoform with a V5 and a His6 tag at the C-terminal end. […] SK-N-BE(2)-M17 (M17) cells, a dopaminergic-producing human neuroblastoma cell line, were transfected with each isoform or empty vector using Superfect, and stably-transfected cells were selected for in the presence of G418.
The M17 14-3-3θ clones were examined for their resistance to rotenone (0-25 μM). M17 cell lines stably transfected with either 14-3-3θ or empty vector were treated with rotenone for 24 (FIG. 6A), 30 (FIG. 6B) or 48 hours (FIG. 6C). Cell death was assayed by […] (LDH) release into the culture media using the LDH assay kit from Roche. LDH release into media was normalized to total LDH release for each well. Results reflect three independent experiments with at least two replicates per experiment.
Stable M17 cell lines overexpressing these other isoforms were treated with rotenone at varying concentrations, and then cell death was assayed at 48 hours by LDH release. […]

M17 cells = test: MPP+ toxicity in stably transfected cell lines, LDH release; type: cell-based, human; conditions: stable overexpression; MPP+ 0-10 mM; 24 hours
Method: as §1, with “Cell” for “M17 cell”, “MPP+” for “rotenone (0-25 μM)”, “24” for “48”, “well. Lines overexpressing 14-3-3θ (FIG. 9A), 14-3-3ε (FIG. 9B), or 14-3-3γ (FIG. 9C) were more resistant to MPP+ in a dose-dependent manner compared to control stable cells.” for “well.”, “experiment.” for “experiment. *p<0.05,”
The 14-3-3 expressing M17 clones were also tested for resistance to the neurotoxin 1-methyl-4-phenylpyridinium ion (MPP+), which is a metalbolite of 1-methyl-4-phenyl-1,2,3,6-tetrahydropyridine (MPTP). M17 cells expressing the 14-3-3 isoforms were prepared as described. M17 cells were treated with MPP+ (0-10 mM) for 24 hours (FIGS. 9A-G). Cell death was assayed by LDH release into the culture media as described above.
(§2) Primers against each of the human 14-3-3 isoforms were designed using Primer3. Primers against 14-3-3β (NM_018753) were 5′ […] 3′ (forward; SEQ ID NO. 9) and 5′ […] 3′ (reverse; SEQ ID NO. 10). Primers against 14-3-3ε (NM_009536) were 5′ […] 3′ (forward; SEQ ID NO. 11) and 5′ […] 3′ (reverse; SEQ ID NO. 12). Primers against 14-3-3γ (NM_018871) were 5′ […] 3′ (forward; SEQ ID NO. 13) and 5′ […] 3′ (reverse; SEQ ID NO. 14). Primers against 14-3-3η (NM_011738) were 5′ […] 3′ (forward; SEQ ID NO. 15) and 5′ […] 3′ (reverse; SEQ ID NO. 16). Primers against 14-3-3θ (NM_011739) were 5′ […] 3′ (forward; SEQ ID NO. 17) and 5′ […] 3′ (reverse; SEQ ID NO. 18). Primers against 14-3-3σ (NM_018754) were 5′ […] 3′ (forward; SEQ ID NO. 19) and 5′ […] 3′ (reverse; SEQ ID NO. 20). Primers against 14-3-3ζ(NM_011740) were 5′ […] 3′ (forward; SEQ ID NO. 21) and 5′ […] 3′ (reverse; SEQ ID NO. 22). Primers against GAPDH were 5′ tggtgaagcaggeatctga 3′ (forward; SEQ ID NO. 23) and 5′ […] 3′ (reverse; SEQ ID NO. 24) and were used to normalize PCR results. • α-syn aggregation assay H4 cells were transfected with synphilin, α-syn/green fluorescent protein (synT), and either empty vector control or a 14-3-3 isoform using Superfect transfection reagent (Qiagen). 24 hours after transfection, cells were fixed with 4% paraformaldehyde and immunostained with a monoclonal antibody against α-syn (BD Transduction) and a secondary Alexa 488-conjugated goat anti-mouse antibody (Molecular Probes). All cells stained for α-syn were scored as positive or negative for α-syn aggregates, with the rater blind to experimental condition. • α-syn toxicity assay H4 cells were transfected with α-syn and either empty vector control or a 14-3-3 isoform using Superfect transfection reagent (Qiagen). 24 hours after transfection, toxicity was measured by the amount of adenylate kinase released into the media using the ToxiLight™ kit (Cambrex). • Creation of stable cell lines Each 14-3-3 isoform was subcloned into the mammalian expression vector mcDNA3.1/V5-His (Invitrogen). BE(2)-M17 cells were transfected with each isoform or empty vector using Superfect, and stably-transfected cells were selected for in the presence of G418. […] Protein concentrations of supernatants were determined by the bicinchoninic acid assay (BCA; Pierce, Rockford, Ill.). […]

H4 cells = test: α-syn toxicity assay, adenylate kinase released into the media; type: cell-based; conditions: co-transfected with wildtype α-syn; 24 hours after transfection; vs empty vector
Method: Briefly, H4 cells were transfected with wildtype α-syn and each of the 14-3-3 polypeptide isoforms or empty vector controls as discussed above. Twenty-four hours after transfection, cell death was assayed by adenylate kinase activity in the media (n=4, *p<0.05, **p<0.01, ***p<0.001).
as §2, with “3′ (reverse; SEQ ID NO. 24) and were used to normalize PCR results. • α-syn aggregation assay H4 cells were transfected with synphilin, α-syn/green fluorescent protein (synT), and either empty vector control or a 14-3-3 isoform using Superfect transfection reagent (Qiagen). 24 hours after transfection, cells were fixed with 4% paraformaldehyde and immunostained with a monoclonal antibody against α-syn (BD Transduction) and a secondary Alexa 488-conjugated goat anti-mouse antibody (Molecular Probes).” left out, “(Invitrogen).” for “(Invitrogen). BE(2)-M17 cells were transfected with each isoform or empty vector using Superfect, and stably-transfected cells were selected for in the presence of G418.”

Molecule | rotenone-induced cell death, % of that in control cells ([1]; 1 μM rotenone, LDH release) | protection against rotenone toxicity (LDH release) [1] | protection against MPP+ toxicity (LDH release) (M17 cells) | effect on α-syn dependent cell death (adenylate kinase activity in the media) (H4 cells)
14-3-3β: 14-3-3 polypeptide β isoform, overexpressed from expression vector (protein, UniProt P31946 1-246, looked up) 14-3-3 protein beta/alpha: MTMDKSELVQKAKLAEQAERYDDMAAAMKAVTEQGHELSNEERNLLSVAYKNVVGARRSSWRVISSIEQKTERNEKKQQMGKEYREKIEAELQDICNDVLELLDKYLIPNATQPESKVFYLKMKGDYFRYLSEVASGDNKQTTVSNSQQAYQEAFEISKKEMQPTHPIRLGLALNFSVFYYEILNSPEKACSLAKTAFDEAIAELDTLNEESYKDSTLIMQLLRDNLTLWTSENQGDEGDAGEGEN | 75% | some protection | did not show any significant protection | 
14-3-3η: 14-3-3 polypeptide η isoform, overexpressed from expression vector (protein, UniProt Q04917 2-246, looked up) 14-3-3 protein eta: GDREQLLQRARLAEQAERYDDMASAMKAVTELNEPLSNEDRNLLSVAYKNVVGARRSSWRVISSIEQKTMADGNEKKLEKVKAYREKIEKELETVCNDVLSLLDKFLIKNCNDFQYESKVFYLKMKGDYYRYLAEVASGEKKNSVVEASEAAYKEAFEISKEQMQPTHPIRLGLALNFSVFYYEIQNAPEQACLLAKQAFDDAIAELDTLNEDSYKDSTLIMQLLRDNLTLWTSDQQDEEAGEGN |  | did not provide any protection |  | 
14-3-3σ: 14-3-3 polypeptide σ isoform, overexpressed from expression vector (protein, UniProt P31947 1-248, looked up) 14-3-3 protein sigma: MERASLIQKAKLAEQAERYEDMAAFMKGAVEKGEELSCEERNLLSVAYKNVVGGQRAAWRVLSSIEQKSNEEGSEEKGPEVREYREKVETELQGVCDTVLGLLDSHLIKEAGDAESRVFYLKMKGDYYRYLAEVATGDDKKRIIDSARSAYQEAMDISKKEMPPTNPIRLGLALNFSVFHYEIANSPEEAISLAKTTFDEAMADLHTLSEDSYKDSTLIMQLLRDNLTLWTADNAGEEGGEAPQEPQS |  | did not provide any protection |  | protective effects

Source: US7919262B2, “14-3-3 proteins for diagnosis of Parkinson's disease” (The UAB Research Foundation, priority 2007, dated 2011)
